Test results as given in patent US20230416345A1, “NEW TYPE II COLLAGEN BINDING PROTEINS” (Navigo Proteins GmbH, priority 2020, published 2023).

Key:
[1] = target: T1, human collagen type III (Homo sapiens, UniProt P02461); experiment: ELISA specificity vs human collagen type III; type: binding
T1 construct: purchased Abcam ab7535
T1 sequence (P02461 154-1221 limits assumed): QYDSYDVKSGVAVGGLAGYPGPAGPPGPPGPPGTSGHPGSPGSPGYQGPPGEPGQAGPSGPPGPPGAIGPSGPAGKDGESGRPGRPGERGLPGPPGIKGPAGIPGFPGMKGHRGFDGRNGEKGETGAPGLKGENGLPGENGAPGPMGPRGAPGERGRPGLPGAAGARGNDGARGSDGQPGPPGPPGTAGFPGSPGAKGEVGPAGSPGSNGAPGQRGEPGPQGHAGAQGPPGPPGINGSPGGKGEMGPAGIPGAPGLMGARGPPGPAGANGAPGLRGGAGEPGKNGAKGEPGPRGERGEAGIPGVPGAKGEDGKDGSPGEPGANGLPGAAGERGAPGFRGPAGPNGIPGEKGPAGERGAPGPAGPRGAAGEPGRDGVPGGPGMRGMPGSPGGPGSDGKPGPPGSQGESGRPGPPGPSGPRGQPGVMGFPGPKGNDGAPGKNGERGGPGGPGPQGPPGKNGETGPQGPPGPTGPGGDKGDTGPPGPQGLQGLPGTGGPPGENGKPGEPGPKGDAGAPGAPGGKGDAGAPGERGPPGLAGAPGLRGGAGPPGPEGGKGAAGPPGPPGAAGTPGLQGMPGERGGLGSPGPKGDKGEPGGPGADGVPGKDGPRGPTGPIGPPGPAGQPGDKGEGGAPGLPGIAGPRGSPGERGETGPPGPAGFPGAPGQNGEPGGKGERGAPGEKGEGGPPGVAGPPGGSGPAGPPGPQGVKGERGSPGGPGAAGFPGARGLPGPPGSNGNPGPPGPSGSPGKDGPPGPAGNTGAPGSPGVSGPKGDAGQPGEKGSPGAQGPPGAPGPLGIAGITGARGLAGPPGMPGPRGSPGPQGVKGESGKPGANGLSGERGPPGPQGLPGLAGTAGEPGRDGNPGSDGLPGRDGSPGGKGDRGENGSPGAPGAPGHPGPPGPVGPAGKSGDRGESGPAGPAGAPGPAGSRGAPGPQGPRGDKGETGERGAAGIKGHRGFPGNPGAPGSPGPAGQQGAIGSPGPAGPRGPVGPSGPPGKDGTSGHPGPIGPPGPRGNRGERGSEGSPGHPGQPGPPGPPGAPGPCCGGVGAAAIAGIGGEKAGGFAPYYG
Procedure: (§1) High binding plates (Greiner, 781061) were immobilized with 2.5 μg/ml recombinant human collagen type II (h Col II, Chondrex, CHX-20051), rabbit collagen type II (rbCol II, prepared from rabbit eyes), porcine collagen type II (p Col II, prepared from porcine eyes), human collagen type I, (h Col I, Sigma, C5483-1MG), human collagen type V (h Col V, Abcam, ab7537), human collagen type III (h Col Ill, Abcam, ab7535) and 67B89 (domain of fibronectin, produced in E. coli) respectively over night at 4° C. ELISA-plates were washed 3 times with PBST (PBS+ 0.1% Tween) and blocked with 3% BSA/0.5% Tween/PBS 2 h at RT. After washing with PBST, dilution series of 1.1 μM to 7×10^−4 nM of dimers (CID 211999, CID 212000), dilution series of 100 nM to 7×10^−6 nM of tetramers (CID 212001 and CID 212704) and dilution series of 10 μM to 2 nM of dimer (CID 212705) were incubated on ELISA-plates 1 h at rt. Plates were washed with PBST and incubated with biotinylated anti-StrepTag-ab (Antikörper-online, ABIN1573895) with a dilution of 1:10.000 for 1 h at rt. The binding was visualized with a-rabbit-IgG-HRP (Sigma, A9169) with a dilution of 1:10.000 and as substrate TMB Plus von KEM EN TEC Diagnostic, Kat-Nr. 4395.

[2] = target: T2, human collagen type I (h Col I) (Homo sapiens, UniProt P02452+P08123); experiment: ELISA specificity vs human collagen type I; type: binding
T2 construct: purchased Sigma C5483-1MG
T2 sequence (P02452 162-1218 limits assumed): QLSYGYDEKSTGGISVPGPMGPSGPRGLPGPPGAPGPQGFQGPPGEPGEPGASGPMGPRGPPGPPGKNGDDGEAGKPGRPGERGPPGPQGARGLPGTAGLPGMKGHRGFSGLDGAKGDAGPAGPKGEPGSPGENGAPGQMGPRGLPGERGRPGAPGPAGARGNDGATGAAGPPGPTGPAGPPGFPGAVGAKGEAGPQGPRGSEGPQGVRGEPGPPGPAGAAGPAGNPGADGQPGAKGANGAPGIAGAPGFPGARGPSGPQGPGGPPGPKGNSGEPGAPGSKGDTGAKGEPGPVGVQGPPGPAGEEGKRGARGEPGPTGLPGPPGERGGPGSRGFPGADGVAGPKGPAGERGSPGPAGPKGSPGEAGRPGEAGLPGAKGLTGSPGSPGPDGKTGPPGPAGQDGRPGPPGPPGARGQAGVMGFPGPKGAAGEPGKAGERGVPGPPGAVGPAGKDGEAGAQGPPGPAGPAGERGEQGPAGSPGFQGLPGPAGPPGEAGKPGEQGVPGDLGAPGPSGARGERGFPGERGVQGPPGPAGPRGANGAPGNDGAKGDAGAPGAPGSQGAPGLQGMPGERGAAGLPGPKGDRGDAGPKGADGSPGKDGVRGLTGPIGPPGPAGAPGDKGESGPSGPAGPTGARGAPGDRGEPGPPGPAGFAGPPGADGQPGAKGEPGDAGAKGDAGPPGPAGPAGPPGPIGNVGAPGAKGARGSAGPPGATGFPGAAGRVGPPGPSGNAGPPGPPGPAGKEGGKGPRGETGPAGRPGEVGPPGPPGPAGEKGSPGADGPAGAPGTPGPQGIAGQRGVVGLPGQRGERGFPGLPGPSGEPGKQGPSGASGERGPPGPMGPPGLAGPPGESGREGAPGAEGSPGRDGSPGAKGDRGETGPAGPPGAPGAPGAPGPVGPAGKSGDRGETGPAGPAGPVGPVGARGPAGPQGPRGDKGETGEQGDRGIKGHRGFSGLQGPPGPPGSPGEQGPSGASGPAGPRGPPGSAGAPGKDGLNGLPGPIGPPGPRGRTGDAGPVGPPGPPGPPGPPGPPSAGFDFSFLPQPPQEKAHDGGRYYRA
T2 sequence (P08123 80-1119 limits assumed): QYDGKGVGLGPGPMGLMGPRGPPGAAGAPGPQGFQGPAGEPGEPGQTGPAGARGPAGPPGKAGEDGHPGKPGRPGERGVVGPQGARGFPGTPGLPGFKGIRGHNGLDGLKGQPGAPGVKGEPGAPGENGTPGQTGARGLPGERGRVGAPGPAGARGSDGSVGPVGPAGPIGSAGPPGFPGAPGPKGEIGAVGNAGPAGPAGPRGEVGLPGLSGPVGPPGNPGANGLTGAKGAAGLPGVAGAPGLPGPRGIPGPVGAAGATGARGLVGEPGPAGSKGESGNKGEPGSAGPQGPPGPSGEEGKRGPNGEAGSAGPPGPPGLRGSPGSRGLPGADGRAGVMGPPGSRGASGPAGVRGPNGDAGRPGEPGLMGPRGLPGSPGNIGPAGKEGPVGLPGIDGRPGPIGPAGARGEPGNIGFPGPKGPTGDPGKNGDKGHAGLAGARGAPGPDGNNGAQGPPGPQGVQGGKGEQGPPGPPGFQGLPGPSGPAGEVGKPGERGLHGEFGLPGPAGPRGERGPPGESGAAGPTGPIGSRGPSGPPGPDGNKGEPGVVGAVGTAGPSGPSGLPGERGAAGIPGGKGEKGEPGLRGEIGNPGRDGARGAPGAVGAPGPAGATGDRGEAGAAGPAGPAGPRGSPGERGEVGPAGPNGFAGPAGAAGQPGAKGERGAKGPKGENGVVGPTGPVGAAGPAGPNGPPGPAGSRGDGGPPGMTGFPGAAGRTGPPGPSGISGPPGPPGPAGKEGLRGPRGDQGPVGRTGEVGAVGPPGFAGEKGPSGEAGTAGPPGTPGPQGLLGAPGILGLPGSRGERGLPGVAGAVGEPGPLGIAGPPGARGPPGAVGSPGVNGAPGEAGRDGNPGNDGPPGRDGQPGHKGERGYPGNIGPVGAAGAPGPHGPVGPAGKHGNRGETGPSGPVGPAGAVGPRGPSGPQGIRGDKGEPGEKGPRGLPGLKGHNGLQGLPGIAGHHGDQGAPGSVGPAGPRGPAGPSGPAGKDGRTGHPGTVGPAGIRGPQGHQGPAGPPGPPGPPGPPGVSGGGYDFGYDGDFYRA
Procedure: as §1

[3] = target: Type I collagen (Homo sapiens, UniProt P02452+P08123); experiment: SPR specificity vs Type I collagen; type: binding
Sequence of Type I collagen (P02452 162-1218 limits assumed): as the sequence (P02452 162-1218 limits assumed) above
Sequence of Type I collagen (P08123 80-1119 limits assumed): as the sequence (P08123 80-1119 limits assumed) above
Procedure: (§2) The purified proteins were immobilized on a CM-5 sensor chip (GE Healthcare) using NHS/EDC after PDEA activation resulting in 110-140 RU with a Biacore 3000 system (GE Healthcare). The chip was equilibrated with SPR running buffer (PBS 0.05% Tween pH 7.3). Upon binding, target analyte was accumulated on the surface increasing the refractive index. This change in the refractive index was measured in real time and plotted as response or resonance units versus time. The analytes were applied to the chip in serial dilutions with a flow rate of 30 μl/min. The association was performed for 120 seconds and the dissociation for 120 seconds. After each run, the chip surface was regenerated with 30 μl regeneration buffer (10 mM glycine pH 2.0) and equilibrated with running buffer.
(§3) Binding studies were carried out by the use of the BIAcore 3000 (GE Healthcare); data evaluation was operated via the BIAevaluation 3.0 software, provided by the manufacturer, using the Langmuir 1:1 model (RI=0). Evaluated dissociation constants (KD) were standardized against the immobilized protein and indicated. Shown is the change in refractive index measured in real time and plotted as response or resonance unit [RU] versus time [sec].

[4] = target: extradomain B of fibronectin (Homo sapiens, UniProt P02751); experiment: SPR control extradomain B of fibronectin; type: binding
Sequence of extradomain B of fibronectin (P02751 1271-1359 limits assumed): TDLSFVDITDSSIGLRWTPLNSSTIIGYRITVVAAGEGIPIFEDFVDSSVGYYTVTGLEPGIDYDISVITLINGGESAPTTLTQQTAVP
Procedure: as §2, §3

[5] = target: BSA (Bos taurus, UniProt P02769); experiment: SPR control BSA; type: binding
Sequence of BSA (P02769 25-607): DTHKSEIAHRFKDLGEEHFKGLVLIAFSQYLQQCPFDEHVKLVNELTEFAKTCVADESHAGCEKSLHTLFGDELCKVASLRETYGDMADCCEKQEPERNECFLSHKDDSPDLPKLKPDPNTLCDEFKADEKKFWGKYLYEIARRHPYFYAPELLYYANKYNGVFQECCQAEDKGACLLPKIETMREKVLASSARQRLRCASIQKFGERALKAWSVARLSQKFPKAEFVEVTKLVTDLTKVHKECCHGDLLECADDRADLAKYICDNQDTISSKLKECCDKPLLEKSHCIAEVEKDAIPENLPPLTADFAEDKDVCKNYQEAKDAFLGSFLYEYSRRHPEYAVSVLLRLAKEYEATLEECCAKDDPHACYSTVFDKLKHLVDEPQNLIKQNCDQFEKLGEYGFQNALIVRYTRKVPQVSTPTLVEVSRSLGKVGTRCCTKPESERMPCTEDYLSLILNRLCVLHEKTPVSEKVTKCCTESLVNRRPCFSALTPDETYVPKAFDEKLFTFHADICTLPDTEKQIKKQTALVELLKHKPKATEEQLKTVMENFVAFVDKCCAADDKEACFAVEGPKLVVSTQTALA
Procedure: as §2, §3

[6] = Soluble expression in Escherichia coli BL21(DE3); type: physicochemical; conditions: expression in E. coli BL21(DE3)
Procedure: Variants with affinity tag were expressed in Escherichia coli BL21(DE3) using a low copy plasmid system under regulation of a T7 promoter. Proteins were produced in soluble form after induction by lactose included in the medium (autoinduction medium). BL21 (DE3) competent cells were transformed with the expression plasmid, spread onto selective agar plates (kanamycin) and incubated overnight at 37° C. Precultures were inoculated from single colony in 3 ml 2×YT medium supplemented with 50 μg/ml kanamycin and cultured for 6 hours at 37° C. at 200 rpm in a conventional orbital shaker in culture tubes. […] Cultures were transferred to an orbital shaker and incubated at 30° C. and 200 rpm. […] Before the harvest, the OD600 was measured, samples adjusted to 0.6/OD600 were withdrawn, pelleted and frozen at −20° C. […]
Proteins with affinity tag were purified by affinity chromatography and size exclusion. […] Homogenous species of all purified ligands were obtained; no aggregation was detected. Following SOS-PAGE analysis positive fractions were pooled and their protein concentrations were measured. […] Protein concentrations were determined by absorbance measurement at 280 nm using the molar absorbent coefficient. […] Binding of Collagen II was evaluated by SPR measurements using a Biacore 3000 system. […]

[7] = target: T3, recombinant human collagen type II (h Col II) (Homo sapiens, UniProt P02458); experiment: KD-determination by ELISA vs human collagen type II; type: binding
T3 construct: purchased Chondrex CHX-20051
T3 sequence (P02458 182-1241): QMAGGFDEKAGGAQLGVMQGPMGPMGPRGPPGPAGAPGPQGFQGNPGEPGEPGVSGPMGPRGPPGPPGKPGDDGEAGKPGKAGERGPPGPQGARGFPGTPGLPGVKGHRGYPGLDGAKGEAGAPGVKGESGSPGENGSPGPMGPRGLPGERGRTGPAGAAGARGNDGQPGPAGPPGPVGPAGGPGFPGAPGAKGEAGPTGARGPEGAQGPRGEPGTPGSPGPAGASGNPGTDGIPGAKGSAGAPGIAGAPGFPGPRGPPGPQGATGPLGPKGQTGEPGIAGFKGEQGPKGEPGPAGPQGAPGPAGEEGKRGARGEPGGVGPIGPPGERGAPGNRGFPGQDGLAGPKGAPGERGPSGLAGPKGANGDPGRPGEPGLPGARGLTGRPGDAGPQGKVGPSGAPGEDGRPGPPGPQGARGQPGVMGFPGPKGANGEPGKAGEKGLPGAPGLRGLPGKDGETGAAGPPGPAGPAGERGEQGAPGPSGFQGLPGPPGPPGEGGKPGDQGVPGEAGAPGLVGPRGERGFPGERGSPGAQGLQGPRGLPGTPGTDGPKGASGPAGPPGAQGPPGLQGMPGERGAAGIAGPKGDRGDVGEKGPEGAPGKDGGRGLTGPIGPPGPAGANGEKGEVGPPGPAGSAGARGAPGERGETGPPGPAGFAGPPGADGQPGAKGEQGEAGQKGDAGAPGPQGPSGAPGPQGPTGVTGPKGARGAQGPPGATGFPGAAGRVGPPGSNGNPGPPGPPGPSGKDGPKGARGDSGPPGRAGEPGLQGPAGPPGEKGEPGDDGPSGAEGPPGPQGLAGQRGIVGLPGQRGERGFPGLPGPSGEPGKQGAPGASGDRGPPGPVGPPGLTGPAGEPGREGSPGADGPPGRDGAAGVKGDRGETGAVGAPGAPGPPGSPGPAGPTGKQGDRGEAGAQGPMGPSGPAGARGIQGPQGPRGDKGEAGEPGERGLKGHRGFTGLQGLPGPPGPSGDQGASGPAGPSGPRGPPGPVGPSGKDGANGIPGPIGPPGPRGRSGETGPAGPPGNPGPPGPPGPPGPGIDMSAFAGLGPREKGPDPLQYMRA
Procedure: as §1

[8] = target: T4, Type III collagen (Homo sapiens, UniProt P02461); experiment: SPR specificity vs Type III collagen; type: binding
T4 sequence (P02461 154-1221 limits assumed): T1 sequence (P02461 154-1221 limits assumed)
Procedure: as §2, §3

binding to type III collagen (ELISA) [1] | binding to type I collagen (ELISA) [2] | Binding to Type I collagen (SPR) [3] | Binding to control extradomain B of fibronectin (SPR) [4] | Binding to control BSA (SPR) [5] | binding vs human type II collagen (ELISA, words) [7] | Binding to Type III collagen (SPR) [8] | Substance | Solubility Soluble expression [6]
additionally | additionally | additional binding | not to controls | not to controls | specific binding | additional binding | CID 211190: type II collagen binding protein of SEQ ID NO: 1 (monomer) (NAASHDEAQLSALVEIWDLPNLTTRQKQKFIYSLQRDPSVSKEVLGEAQKLNDSQAPK; Col2 binding protein 211190) | 95%
– | – | – | – | – | – | – | CID 211261: Type II Collagen binding protein of SEQ ID NO: 2 (monomer, motif 25Q-29Y-33W) (IAAKFDEAQSAADSEILHLPNLTEQQRHYFRRWLSDDPSVSTHILTQAQHLNDDQAPK; Col2 binding protein 211261) | 95%
